Assay results as given in the RNAGym collection of RNA variant scans (doi:10.1073/pnas.2313332121).

B1: TPR t1 (parent)
chain: GACCAAUCUGCCCUCAGAGCUCGAGAACAUCUUCGGAUGCAGAGGAGGCAGGCUUCGGUGGCGCGAUAGCGCCAACGUCCUCAACCUCCAAUGCAUCCCACCACAUGAUGAUGCCUGAAGAGCCUUGGUUUUUUG

Variants of: B1
Assay: polymerase ribozyme fitness, log enrichment relative to wild type (log ratio); higher = more active; in vitro selection for triplet polymerase activity
In short: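 Each subunit of a heterodimeric triplet polymerase ribozyme was mutagenized into a library by PCR, transcribed, and subjected to one round of in vitro selection, run in triplicate. Libraries were annealed with a biotinylated primer, the partner subunit and triplets, incubated frozen at −7 °C, and extended constructs were gel-excised, captured on streptavidin beads and recovered by RT-PCR. Input and output libraries were sequenced on Illumina, keeping genotypes with ≥10 input reads and ≥1 read per output. Fitness is log base 2 of genotype enrichment divided by wild-type enrichment, from inverse-variance-weighted replicate averages.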

Variant | polymerase ribozyme fitness (log ratio)
C13U C73U | -0.351
C15A A37U | -2.28
U14G A50U C56U G93U U112A | -3.22
C15U G23A A111U | -7.2
C15A G63A | -2.56
C15U A50U G120C | -0.665
C15A A18U C22G U92G | -6.59
C15U G44C A83U A100C | -3.3
C15G G47U A83U A108U C114G U116G G117C | -6.68
C15A G47U G61U | -3.15
U14G C34A G117A | -4.56
C13U G63A U78C | -0.503
C15G C97U | -2.23
C15A A41U G60C U133A | -3.25
C15A A41U | -3.45
C15U A95U | -2.49
C13U G117A | -1.27
U14G A41C A74U A84C | -3.77
U14A C70U C104U | -2.52
U14A G45A G110U U112C | -4.2
C15A G19A A50C A74G C102A C104A A121U U125G | -6.51
C15U G36C U112C | -1.24
C15G G60C U130C | -1.49
U14A C49U G52U C76A | -4.51

Variant | polymerase ribozyme fitness (log ratio)
C15G U55C A75G | -3.14
C15G C114U | -4.3
C13U C82U A83G A118U | -1.83
U14C A43G | -3.2
C15A A37U G39A G42U A90U | -3.14
C15G G44C G57U | -3.85
U14A G48A C56U G117U | -5.41
U14G C56U C70A | -5.19
C15U C73U C94A A111C | -2.53
C15G C70U C82G C88A | -4.4
C13U U55G C79U | 0.324
C15A C72U G93U C114G | -5.25
U14A C79U G117U | -5.29
C13U G47C C72G G110A | -3.24
C15A G48U A50G C97U | -4.67
C13U G39A G58U C79G C97U | -2.64
U14A G63A U125A | -2.94
C15U C56A G69C U78C A83G U112C U116A | -6.66
C15G A118U U131A | -1.47
C15A G52A G61U C88A A95C U112C C124U | -1.64
C13U G45U C56G U87A | -3.44
C15G G71U C72U A95U | -4.5
C15G A29G C88G | -3.43
C15U C124G | -0.245

Variant | polymerase ribozyme fitness (log ratio)
C15A C22A U96A C124U | -5.05
C15G C72U | -3.01
U14A A18C G113A C123U | -4.67
C15A G52U U55G | -1.52
C13U G60C C82U U96G | -1.02
C13U U14A G71A C82G | -2.67
U14A C53G C70U C72G | -4.88
C13U U96A | -1.11
C15A G47U C115A A121C U133C | -3.65
C15G C62U | -1.91
C15A C88U C123U | -1.37
C15A G61U A105C | -4.93
U14G G48A C64U U116A C123G U131C | -1.29
U14G C73U A90G | 1.59
U14A G36U C40G C56A A84G C97A | -7.86
C13U U59C C70G | -4.01
C15U C64U G77A G93C C98U G120A C124G | -1.82
C15A A46C G52U C56U C115G | -6.86
U14A G52A | -3.3
C13U U78A | 0.102
U14G C20U C22G G23C U33C U38G C62U U112C A118G G127A | -6.3
U14A G52C C102U U106C C124G | -1.75
C15A C28G G36A C40U G110C U112C C115A G117U G120A | -3.11
C13U U21A A27G G61C C99U | -6.29

Variant | polymerase ribozyme fitness (log ratio)
U14G A46G G71C G120A | -0.69
U14G G60A G117U | -5.67
U14A A18U C73A G77C A119U | -3.61
U14C A75G | -1.81
C13U G63U | -0.742
C13U G63C | -0.36
C15G U32C C49U U87G C123A | -3.12
C13U C124U | 1.96
C15A G44A G45U G48U C62U C73U U78G | -5.47
C15G G63A U116G | -3.64
C15G A50U U109A | -6.25
C13U C72U U92C A105G | -5.23
C15U A37U C62U | -1.85
C15A C70A | -2.47
C15A C70U | -2.96
U14G C73U | -1.04
C15G A16C G51U G61U G71C C79A U112G | -6.41
C15A A37G C79G | -3.88
U14A C56G | -3.51
C15G C98U | -4.22
U14A U21G G120U C124U | -0.621
U14C G47C | -2.99
C15U G42U G44C C94U | -3.39
C15U A41U | -2.32

Variant | polymerase ribozyme fitness (log ratio)
C15U G39A G117C G120A | -3.48
C15U A41C G48A C53U C56U C124U | -1.63
C13U G19C G48U | -3.4
C15G U92G C97U A118U | -4.66
C15U A29U A37U C62G C124G G135C | -2.45
C15A G36A C72U U116A G120U | -4.34
C15U A50U C76U U78A | -3.61
C15U G44U | -2.59
U14G U54A G61C | -2.7
C15A C82A | -3.12
U14A A37U G93U U132A | -4.47
C15U C22G U54G G71U G93A G122A C123U | -4.87
C15A A74G U81G U112C | -3.53
C15U G45C G47A C53U U59A A90G C101U | -5.35
C13U G35A G48A U59C C86U G120U | -5.19
U14G G110A U130A | -3.04
C15G G42A C88G | -4.44
C15U C56U | -1.21
U14C A37C | -2.09
C13U G61C | -1.59
U14G C70G U116G U125A | -5.32
C15A C20A A118U | -3.93
C13U C123U U132A | 1.91
U14A U32C U87A C101A | -3.54

Variant | polymerase ribozyme fitness (log ratio)
C15A U78A | -2.6
U14A U125A | -2.3
U14A U125G | -3.25
C15U C70U G71A | -1.62
U14G G36C | -3.92
U14G G39A C85U G117A | -3.84
C15U C79U A111U A121U | -3.53
C15G C98G G120A C123A C124A | -6.86
C15A C73G G117A G127U | -4.62
U14C G45A G122A | -3.73
C15A A46U G117U C124U U132C | -0.364
C13U G93A C114G | -2.39
C13U C82G A90U C104A | -5.14
C15G A37C A46U C53A C56G | -4.78
C15U A66G G71A C98A G113U | -7.64
U14A U116A A121G | 0.0546
C15G A83U C115G C123A | -5.38
C15A G52A G117U | 0.0979
C15G G39U G48A A68U U112G | -7.39
C13U G35U | -3.47
C15A C72G C104U | -1.9
C13U C70A A84U | -1.83
C15A C88U | -2.17
U14G C79G | -3.52

Variant | polymerase ribozyme fitness (log ratio)
U14A G63C | -2.57
C13U G113U | -2.4
U14C A26C C70U U78A A83U U109G U112A | -6.59
C15G A18U C70U U116A G120U | -1.19
U14C A18G G63A U78C G117U | -5.13
C15G A84U G120U U129G | -5.84
U14A A50C U125G | -3.97
C13U U55A C88U | -0.31
C15U C56G A90C G93A G117U G127A | -3.28
U14A C72U G93U U133A G135U | -4.17
C15A U33A G42C U78C C79U A111G | -6.15
U14G G69C | -3.2
C13U G63A C64U | -4.34
C15U A43U G45C C94G | -4.68
C15U C99U C102A G113U A118G | -7.09
U14A A46C U112A A119G G122C | -0.328
C13U C64U | 0.138
U14A G60U U78C | -3.65
C13U G69U G93A U126C | -0.75
C15G G110A | -3.78
C13U U21C C80U A90U | -1.82
C13U G19U G52U | -2.98
C15G A18U | -3.36
